The record followed here is patent publication US20240228660A1 (IP2IPO INNOVATIONS, published 2024).

The chains are these.
B1: 1-A2_VH-par_VL-par (antibody, human IgG1, kappa)
heavy chain: not shown
light chain: AIEMTQTPPSLSASVGETVRIRCLASEDIYSGISWYQQKPGKPPTLLIYGASNLESGVPPRFSGSGSGTDYTLTIGGVQAEDAATYYCLGGHSHSTTDLTFGAGTKVEIKTVAAPSVFIFPPSDEQLKSGTASVVCLLNNFYPREAKVQWKVDNALQSGNSQESVTEQDSKDSTYSLSSTLTLSKADYEKHKVYACEVTHQGLSSPVTKSFNRGEC
notes: also called 1-A2_parental (hIgG1)
B2: 4-H3_VH-par_VL-par (antibody, human IgG1, kappa)
heavy chain: not shown
light chain: AYDMTQTPPSLSASVGETVRIRCLASEDIASGISWYQQKPGKPPTLLIYGASNLESGVPPRFSGSGSGTDYTLTIGGVQAEDAATYYCLGGYSFSSNGLTFGAGTKVEIKTVAAPSVFIFPPSDEQLKSGTASVVCLLNNFYPREAKVQWKVDNALQSGNSQESVTEQDSKDSTYSLSSTLTLSKADYEKHKVYACEVTHQGLSSPVTKSFNRGEC
notes: also called 4-H3_parental (hIgG1)
B3: 1-A2_VH-par_L1 (antibody, human IgG1, kappa, V domains shown)
VH: SQSVEESGGRLVPPGTPLTLTCTVSGIDLTSNAMNWVRQAPGKGLEWIGGIYGHDTSYYAAWAKGRFTISRTSTTVDLKMTRPTTDDTATYFCARGFIYFDIWGTGTLVTISS
VL: DIQMTQSPSSLSASVGDRVTITCLASEDIYSGISWYQQKPGKAPKLLIYGASNLESGVPSRFSGSGSGTDYTLTISSLQPEDFATYYCLGGHSHSTTDLTFGGGTKVEIKT
notes: also called 1-A2_L1 (hIgG1K)
B4: 4-H3_H8_L0 (antibody, human IgG1, kappa, V domains shown)
VH: QQLVESGGGVVQPGRSLRLSCAASGIDLTSNAMNWVRQAPGKGLEWIGGIYGHDTSYYAAWAKGRFTISRDSNTVYLQMNSLRAEDTATYFCARGFIYFDIWGQGTLVTVSS
VL: DIQMTQSPSSLSASVGDRVTITCLASEDIASGISWYQQKPGKAPKLLIYGASNLESGVPSRFSGSGSGTDFTLTISSLQPEDFATYYCLGGYSFSSNGLTFGGGTKVEIKT
notes: humanised, human IgG1 kappa
B5: 4-H3_VH-par_L1 (antibody, human IgG1, kappa, V domains shown)
VH: SQSLEESGGRLVPPGTPLTLTCTVSGIDLTSNAMNWVRQAPGKGLEWIGGIYGHDTSYYAAWAKGRFTISRTSTTVDLKMTRPTTDDTATYFCARGFIYFDIWGTGTLVTISS
VL: DYQMTQSPSSLSASVGDRVTITCLASEDIASGISWYQQKPGKAPKLLIYGASNLESGVPSRFSGSGSGTDYTLTISSLQPEDFATYYCLGGYSFSSNGLTFGGGTKVEIKT
notes: also called 4-H3_L1 (hIgG1K)
B6: 4-H3_VH-par_L0 (antibody, human IgG1, kappa, V domains shown)
VH: SQSLEESGGRLVPPGTPLTLTCTVSGIDLTSNAMNWVRQAPGKGLEWIGGIYGHDTSYYAAWAKGRFTISRTSTTVDLKMTRPTTDDTATYFCARGFIYFDIWGTGTLVTISS
VL: DIQMTQSPSSLSASVGDRVTITCLASEDIASGISWYQQKPGKAPKLLIYGASNLESGVPSRFSGSGSGTDFTLTISSLQPEDFATYYCLGGYSFSSNGLTFGGGTKVEIKT
notes: also called 4-H3_L0 (hIgG1K)
B7: 4-H3_H8_L1 (antibody, human IgG1, kappa, V domains shown)
VH: QQLVESGGGVVQPGRSLRLSCAASGIDLTSNAMNWVRQAPGKGLEWIGGIYGHDTSYYAAWAKGRFTISRDSNTVYLQMNSLRAEDTATYFCARGFIYFDIWGQGTLVTVSS
VL: DYQMTQSPSSLSASVGDRVTITCLASEDIASGISWYQQKPGKAPKLLIYGASNLESGVPSRFSGSGSGTDYTLTISSLQPEDFATYYCLGGYSFSSNGLTFGGGTKVEIKT
notes: humanised, human IgG1 kappa
B8: 1-A2_H2_L1 (antibody, human IgG1, kappa, V domains shown)
VH: QQLVESGGGVVQPGRSLRLSCAASGIDLTSNAMNWVRQAPGKGLEWIGGIYGHDTSYYAAWAKGRFTISRDSNTVYLQMNSLRAEDTATYFCARGFIYFDIWGQGTLVTVSS
VL: DIQMTQSPSSLSASVGDRVTITCLASEDIYSGISWYQQKPGKAPKLLIYGASNLESGVPSRFSGSGSGTDYTLTISSLQPEDFATYYCLGGHSHSTTDLTFGGGTKVEIKT
notes: humanised, human IgG1 kappa
B9: 1-A2_VH-par_L0 (antibody, human IgG1, kappa, V domains shown)
VH: SQSVEESGGRLVPPGTPLTLTCTVSGIDLTSNAMNWVRQAPGKGLEWIGGIYGHDTSYYAAWAKGRFTISRTSTTVDLKMTRPTTDDTATYFCARGFIYFDIWGTGTLVTISS
VL: DIQMTQSPSSLSASVGDRVTITCLASEDIYSGISWYQQKPGKAPKLLIYGASNLESGVPSRFSGSGSGTDFTLTISSLQPEDFATYYCLGGHSHSTTDLTFGGGTKVEIKT
notes: also called 1-A2_L0 (hIgG1K)
B10: 1-A2_H2_L0 (antibody, human IgG1, kappa, V domains shown)
VH: QQLVESGGGVVQPGRSLRLSCAASGIDLTSNAMNWVRQAPGKGLEWIGGIYGHDTSYYAAWAKGRFTISRDSNTVYLQMNSLRAEDTATYFCARGFIYFDIWGQGTLVTVSS
VL: DIQMTQSPSSLSASVGDRVTITCLASEDIYSGISWYQQKPGKAPKLLIYGASNLESGVPSRFSGSGSGTDFTLTISSLQPEDFATYYCLGGHSHSTTDLTFGGGTKVEIKT
notes: humanised, human IgG1 kappa
B11: 4-H3_H8_VL-par (antibody, human IgG1, kappa, V domains shown)
VH: QQLVESGGGVVQPGRSLRLSCAASGIDLTSNAMNWVRQAPGKGLEWIGGIYGHDTSYYAAWAKGRFTISRDSNTVYLQMNSLRAEDTATYFCARGFIYFDIWGQGTLVTVSS
VL: AYDMTQTPPSLSASVGETVRIRCLASEDIASGISWYQQKPGKPPTLLIYGASNLESGVPPRFSGSGSGTDYTLTIGGVQAEDAATYYCLGGYSFSSNGLTFGAGTKVEIKT
notes: also called 4-H3_H8 (hIgG1)
B12: 1-A2_H0_VL-par (antibody, human IgG1, kappa, V domains shown)
VH: QVQLVESGGGVVQPGRSLRLSCAASGFTFSSNAMNWVRQAPGKGLEWVAGIYGHDTSYYAAWAKGRFTISRDNSKNTLYLQMNSLRAEDTAVYYCARGFIYFDIWGQGTLVTVSS
VL: AIEMTQTPPSLSASVGETVRIRCLASEDIYSGISWYQQKPGKPPTLLIYGASNLESGVPPRFSGSGSGTDYTLTIGGVQAEDAATYYCLGGHSHSTTDLTFGAGTKVEIKT
notes: also called 1-A2_H0 (hIgG1)
B13: 1-A2_H2_VL-par (antibody, human IgG1, kappa, V domains shown)
VH: QQLVESGGGVVQPGRSLRLSCAASGIDLTSNAMNWVRQAPGKGLEWIGGIYGHDTSYYAAWAKGRFTISRDSNTVYLQMNSLRAEDTATYFCARGFIYFDIWGQGTLVTVSS
VL: AIEMTQTPPSLSASVGETVRIRCLASEDIYSGISWYQQKPGKPPTLLIYGASNLESGVPPRFSGSGSGTDYTLTIGGVQAEDAATYYCLGGHSHSTTDLTFGAGTKVEIKT
notes: also called 1-A2_H2 (hIgG1)
B14: 4-H3_H6_VL-par rep (antibody, human IgG1, kappa)
heavy chain: not shown
light chain: AYDMTQTPPSLSASVGETVRIRCLASEDIASGISWYQQKPGKPPTLLIYGASNLESGVPPRFSGSGSGTDYTLTIGGVQAEDAATYYCLGGYSFSSNGLTFGAGTKVEIKTVAAPSVFIFPPSDEQLKSGTASVVCLLNNFYPREAKVQWKVDNALQSGNSQESVTEQDSKDSTYSLSSTLTLSKADYEKHKVYACEVTHQGLSSPVTKSFNRGEC
notes: also called 4-H3_H6 (hIgG1)

The target in the test is human full-length VWF (human, UniProt P04275 764-2813). Description: SPR, Biacore T200, antibody captured on Protein A, full-length VWF as analyte, single-cycle kinetics. (In general: In SPR one partner is held on a chip, and binding of the other changes the refractive index at the surface.)
For orientation: Kd means the concentration at which binding is half-saturated. Lower therefore signals tighter binding. On to B1, for which the Kd is 0.000125 nM.

As to B2, the Kd came to 0.0717 nM.

One may read the koff as the rate constant with which the complex falls apart. A high value points to fast dissociation. In general, kon refers to the rate constant with which the complex forms. A higher kon goes with faster complex formation. In the case of B3, the Kd worked out at 0.00707 nM, the koff stood at 1.81e-07 s⁻¹ and the kon was 25600 M⁻¹ s⁻¹.

B4: binding was characterised by a dissociation constant (Kd) of 0.0125 nM, the koff was determined as 5.66e-07 s⁻¹ and the kon was determined as 45200 M⁻¹ s⁻¹.

On to B5, for which binding was characterised by a dissociation constant (Kd) of 0.00143 nM, the koff came to 1.75e-08 s⁻¹ and the kon came to 12300 M⁻¹ s⁻¹.

The molecule B6 had a Kd of 0.00173 nM, an off-rate (koff) of 8.46e-08 s⁻¹ and a kon of 48800 M⁻¹ s⁻¹.

Molecule B7 had a Kd of 0.0173 nM, a koff of 9.15e-07 s⁻¹ and a kon of 52800 M⁻¹ s⁻¹.

For B8, the Kd was 0.00203 nM, the off-rate (koff) came to 3.84e-08 s⁻¹ and the on-rate (kon) was 19000 M⁻¹ s⁻¹.

For B9, binding was characterised by a dissociation constant (Kd) of 0.0125 nM, the koff was 7.44e-07 s⁻¹ and the kon came out at 59600 M⁻¹ s⁻¹.

Molecule B10 came in with a Kd of 0.0969 nM, a koff of 3.5e-06 s⁻¹ and an on-rate constant (kon) of 36100 M⁻¹ s⁻¹.

B11 yielded a Kd of 0.0109 nM, a koff of 5.99e-07 s⁻¹ and a kon of 54900 M⁻¹ s⁻¹.

With B12, the Kd was 0.0176 nM, the koff was found to be 6.18e-07 s⁻¹ and the kon came to 35100 M⁻¹ s⁻¹.

In the case of B13, the Kd amounted to 0.318 nM, the koff was 7.8e-06 s⁻¹ and the kon amounted to 24500 M⁻¹ s⁻¹.

B14 came in with a Kd of 0.00655 nM, a koff of 3.63e-07 s⁻¹ and a kon of 55300 M⁻¹ s⁻¹.
